Source: PMC3686892

System: C=C(OP(=O)(O)O)C(=O)O
Test: anti-pHis dot-blot assay of autophosphorylation velocity
Format: biochemical, Escherichia coli
Conditions: phosphoryl donor; n = 3

## enzyme I (PtsI) (Escherichia coli K-12)
  Km: 135 ± 30 µM
